We go through one substance from US20140314668A1, “TECHNETIUM-99M LABELED COMPLEX OF GOLD NANOPARTICLE-GOLD BINDING PEPTIDES, AND METHOD OF MAKING AND USING THE SAME” (Korea Atomic Energy Research Institute, priority 2013, published 2014).

This data set in a line: NaCl-induced aggregation method (adsorption of GBP1 on the surface of GNPs, UV-Vis). In kind it is physicochemical. As for the experimental part:
In order to investigate a minimum concentration of GBP1 required for complete adsorption on the surface of gold nanoparticles (GNPs), since it is known that salts such as NaCl induce aggregation of gold and other nanoparitices (H.M.L. M. Y. Lin et al, Nature, 339, 1989, 360-362), an NaCl-induced aggregation method was used, and concentration of GBP1 adsorbed on the surface of GNPs was analyzed.
A variety of concentrations of GBP1 were added to 0.5 mL of GNP solution (O.D.=1.0, D=10 nm) to form a mixture, followed by standing for 10 minutes at room temperature. Next, 10% NaCl solution was added to the mixture so as to have a final concentration of 0.5% in order to induce aggregation of GNPs, followed by standing for 10 minutes at room temperature. Subsequently, in order to protect additional aggregation, 0.1% BSA was added to the resultant, followed by standing for 10 minutes at room temperature. Finally, aggregation degree of GNPs was measured in a wavelength range of 220 to 700 nm by UV-Vis spectrophotometer, and the measurement results are shown in FIG. 1.

Consider “GBP1: synthetic gold binding peptide 1, amino acid sequence (SEQ ID No. 1): MHGKTQATSGTIQS (GBP1)”, for which the “GBP1 concentration at which aggregation of GNPs is prevented” value (0.5 mL GNP solution (O.D.=1.0, D=10 nm), 0.5% NaCl final, room temperature) is given as “more than 10 μg/ml”. For the same substance, the “main surface plasmon band of the GNP solution (red-shifted)” value (GBP1 concentration of 10 μg/ml or less, in the presence of NaCl) came to 525 nm.
